In article doi:10.1101/2025.03.09.642192:

Key:
[1] = molecular target: HAdV-C5 hexon protein (HAdV-C5) (UniProt P04133); test: SPR
[2] = molecular target: purified hexon protein from ChAdOx1 (chimpanzee adenovirus Y25 (ChAdOx1)); test: SPR

Chain of HAdV-C5 hexon protein (HAdV-C5) (P04133 whole entry): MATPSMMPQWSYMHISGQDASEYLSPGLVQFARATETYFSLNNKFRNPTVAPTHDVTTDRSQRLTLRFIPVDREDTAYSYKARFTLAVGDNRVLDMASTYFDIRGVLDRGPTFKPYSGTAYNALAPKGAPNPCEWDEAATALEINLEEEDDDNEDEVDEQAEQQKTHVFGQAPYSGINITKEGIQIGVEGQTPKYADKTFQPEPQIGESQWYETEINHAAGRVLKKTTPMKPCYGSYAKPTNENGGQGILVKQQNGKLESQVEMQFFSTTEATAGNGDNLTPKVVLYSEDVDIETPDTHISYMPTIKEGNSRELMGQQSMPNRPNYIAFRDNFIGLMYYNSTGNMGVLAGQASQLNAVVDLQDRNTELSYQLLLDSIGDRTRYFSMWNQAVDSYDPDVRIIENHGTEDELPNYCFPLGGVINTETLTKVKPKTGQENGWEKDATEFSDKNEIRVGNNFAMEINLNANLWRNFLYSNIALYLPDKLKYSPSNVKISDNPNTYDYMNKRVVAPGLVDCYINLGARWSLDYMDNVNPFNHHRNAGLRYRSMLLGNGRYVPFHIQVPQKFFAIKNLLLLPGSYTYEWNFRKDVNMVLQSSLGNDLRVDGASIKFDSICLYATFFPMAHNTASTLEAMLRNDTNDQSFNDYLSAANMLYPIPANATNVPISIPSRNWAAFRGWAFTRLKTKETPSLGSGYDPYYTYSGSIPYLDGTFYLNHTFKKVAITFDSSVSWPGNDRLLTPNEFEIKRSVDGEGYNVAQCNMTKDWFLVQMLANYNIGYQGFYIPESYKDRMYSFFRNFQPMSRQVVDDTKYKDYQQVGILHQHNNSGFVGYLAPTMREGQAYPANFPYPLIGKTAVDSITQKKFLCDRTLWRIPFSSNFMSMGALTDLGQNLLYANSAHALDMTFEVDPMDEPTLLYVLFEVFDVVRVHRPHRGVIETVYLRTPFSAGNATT

Substance: platelet factor 4 (PF4) (natural protein)
- Kd [1]: 767 nM
- Kd [2]: 296 nM
